The record followed here is patent US7846435 (TEIJIN, dated 2010).

One may read the Kd as the constant that tells how readily two partners part at equilibrium. By koff is commonly meant a measure of how fast the partners let go of each other. The low end stands for slow dissociation, the high end for fast dissociation. A word on the kon: it is the rate constant with which the complex forms.

The target of experiment [1] is T1, E. coli Verotoxin II (VT2) (E. coli, UniProt P09385 23-319; P09386 20-89).
T1 sequence 1: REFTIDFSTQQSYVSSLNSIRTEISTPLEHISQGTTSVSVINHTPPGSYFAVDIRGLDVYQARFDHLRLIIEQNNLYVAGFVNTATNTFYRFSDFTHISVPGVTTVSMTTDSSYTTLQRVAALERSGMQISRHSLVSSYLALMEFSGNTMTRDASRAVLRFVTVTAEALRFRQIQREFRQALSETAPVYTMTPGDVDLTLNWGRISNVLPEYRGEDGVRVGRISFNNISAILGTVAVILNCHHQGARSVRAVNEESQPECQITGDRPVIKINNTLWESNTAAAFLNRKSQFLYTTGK
T1 sequence 2: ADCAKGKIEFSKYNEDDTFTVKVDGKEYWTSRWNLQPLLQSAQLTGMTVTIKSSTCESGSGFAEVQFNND

The target of experiment [2] is T1, E. coli Verotoxin II (VT2). Nature of the experiment: BIAcore (SPR). (Surface plasmon resonance follows binding to a sensor surface in real time, without labels.)
Experiment [3] deals with VT2, VT2vx1 of E. coli 0157:H7 TK40 (E. coli). Nature of the experiment: cell-based or functional assay.

B1: humanized VTm1.1 antibody (HuVTm1.1) (antibody, V domains shown)
VH: EVQLVESGGGLVQPGGSLRLSCAASGFTFSSYGMSWVRQAPGKGLEWVATISTGGSYTYYPDSVKGRFTISRDNSKNTLYLQMNSLRAEDTAVYYCARRGDAWGNLDYWGQGTLVTVSS
VL: EIVLTQSPATLSVSPGERATLSCRASQTISNNLHWYQQKPGQAPRLLIKSASQSISGIPARFSGSGSGTDFTLTISSLESEDFAVYYCQQSYSWPLTFGQGTKVEIK
B1: the “factor of difference in competition compared to the mouse antibody” value in experiment [1] was no more than 2 fold. In experiment [2], this molecule registered a Kd of 3.6 nM, an off-rate constant (koff) of 0.00034 s⁻¹ and a kon of 95000 M⁻¹ s⁻¹. Also, the ED50 (µg/ml), in vitro neutralizing assay in experiment [3] is 0.35 µg/mL.
